Laboratory results as given in patent US12679878B2, “CRF2 receptor agonists and their use in therapy” (SANOFI, priority 2020, dated 2026).
Starred links: 1 amine or outer side, 2 acyl side, 3 side chain; linkers in the order of their positions; H or OH if unused. Non-standard residues stand in square brackets, D forms with d. Groups on a side chain read outwards from the residue. No end group written: not given here. *: point of attachment. C16 diacid = O=C(O)CCCCCCCCCCCCCCC(=O)*; γGlu = O=C(O)[C@H](CCC(=O)[*:2])N[*:1]; AEEA = NCCOCCOCC(=O)O; Aib = CC(C)(N)C(=O)O

What was measured:
Test in all cases: cell-based or functional assay
[1] = molecular target: human corticotropin-releasing factor 2α (CRF2α receptor) (human), Q13324
human corticotropin-releasing factor 2α (CRF2α receptor) (human), Q13324, sequence (Q13324 20-411): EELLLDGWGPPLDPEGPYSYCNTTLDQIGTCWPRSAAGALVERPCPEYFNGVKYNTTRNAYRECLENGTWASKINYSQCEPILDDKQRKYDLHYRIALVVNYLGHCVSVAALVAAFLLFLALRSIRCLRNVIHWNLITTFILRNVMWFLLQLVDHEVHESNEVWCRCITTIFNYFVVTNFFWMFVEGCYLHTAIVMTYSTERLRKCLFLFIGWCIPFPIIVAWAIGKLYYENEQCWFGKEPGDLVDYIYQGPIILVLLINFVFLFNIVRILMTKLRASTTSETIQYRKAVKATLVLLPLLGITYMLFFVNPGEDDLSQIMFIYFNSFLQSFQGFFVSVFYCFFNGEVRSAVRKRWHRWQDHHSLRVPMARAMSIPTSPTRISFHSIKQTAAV

[2] = molecular target: T1, CRF1R receptor (anti-target) (UniProt P34998 24-415, limits assumed)
T1 sequence (looked up): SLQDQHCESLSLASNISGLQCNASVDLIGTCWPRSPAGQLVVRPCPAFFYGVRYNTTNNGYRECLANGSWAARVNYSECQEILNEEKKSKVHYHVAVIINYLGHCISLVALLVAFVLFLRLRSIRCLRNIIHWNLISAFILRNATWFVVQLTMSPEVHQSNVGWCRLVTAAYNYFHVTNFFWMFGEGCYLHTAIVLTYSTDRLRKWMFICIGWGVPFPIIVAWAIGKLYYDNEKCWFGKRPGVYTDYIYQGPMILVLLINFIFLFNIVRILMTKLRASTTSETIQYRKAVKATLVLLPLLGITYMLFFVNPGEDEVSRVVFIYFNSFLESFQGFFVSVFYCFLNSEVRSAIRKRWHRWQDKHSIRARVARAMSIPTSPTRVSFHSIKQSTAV

[3] = molecular target: T2, CRF1R receptor (anti-target) (UniProt P34998 24-415, limits assumed); remark: listed apart in the source
T2 sequence (looked up): T1 sequence (looked up)

B1: peptide of SEQ ID NO: 203 (peptide)
peptide: IVLSLD[dV]PIGLK([AEEA-AEEA-γGlu-γGlu-C16 diacid])QILLKQERQKK[Aib]REQAETNKQILAQV-NH2
modifications: N-terminus assumed
SMILES: CC[C@H](C)[C@H](N)C(=O)N[C@H](C(=O)N[C@@H](CC(C)C)C(=O)N[C@@H](CO)C(=O)N[C@@H](CC(C)C)C(=O)N[C@@H](CC(=O)O)C(=O)N[C@@H](C(=O)N1CCC[C@H]1C(=O)N[C@H](C(=O)NCC(=O)N[C@@H](CC(C)C)C(=O)N[C@@H](CCCCNC(=O)COCCOCCNC(=O)COCCOCCNC(=O)CC[C@H](NC(=O)CC[C@H](NC(=O)CCCCCCCCCCCCCCC(=O)O)C(=O)O)C(=O)O)C(=O)N[C@@H](CCC(N)=O)C(=O)N[C@H](C(=O)N[C@@H](CC(C)C)C(=O)N[C@@H](CC(C)C)C(=O)N[C@@H](CCCCN)C(=O)N[C@@H](CCC(N)=O)C(=O)N[C@@H](CCC(=O)O)C(=O)N[C@@H](CCCNC(=N)N)C(=O)N[C@@H](CCC(N)=O)C(=O)N[C@@H](CCCCN)C(=O)N[C@@H](CCCCN)C(=O)NC(C)(C)C(=O)N[C@@H](CCCNC(=N)N)C(=O)N[C@@H](CCC(=O)O)C(=O)N[C@@H](CCC(N)=O)C(=O)N[C@@H](C)C(=O)N[C@@H](CCC(=O)O)C(=O)N[C@H](C(=O)N[C@@H](CC(N)=O)C(=O)N[C@@H](CCCCN)C(=O)N[C@@H](CCC(N)=O)C(=O)N[C@H](C(=O)N[C@@H](CC(C)C)C(=O)N[C@@H](C)C(=O)N[C@@H](CCC(N)=O)C(=O)N[C@H](C(N)=O)C(C)C)[C@@H](C)CC)[C@@H](C)O)[C@@H](C)CC)[C@@H](C)CC)C(C)C)C(C)C
EC50 [nM], 0% HSA (cAMP, HTRF) [1]: 4.7 nM
EC50 [nM] 0% HSA (cAMP, HTRF) [2]: > 100 nM
Emax (%) (100% = Sauvagine at 100 nM) [2]: 4.7%

B2: peptide of SEQ ID NO: 197 (peptide)
peptide: IVLSLD[dV]PIKLK([γGlu-C16 diacid])QILLKQARQK[Aib]QRAQAEKNKRILERV-NH2
modifications: N-terminus assumed
SMILES: CC[C@H](C)[C@H](N)C(=O)N[C@H](C(=O)N[C@@H](CC(C)C)C(=O)N[C@@H](CO)C(=O)N[C@@H](CC(C)C)C(=O)N[C@@H](CC(=O)O)C(=O)N[C@@H](C(=O)N1CCC[C@H]1C(=O)N[C@H](C(=O)N[C@@H](CCCCN)C(=O)N[C@@H](CC(C)C)C(=O)N[C@@H](CCCCNC(=O)CC[C@H](NC(=O)CCCCCCCCCCCCCCC(=O)O)C(=O)O)C(=O)N[C@@H](CCC(N)=O)C(=O)N[C@H](C(=O)N[C@@H](CC(C)C)C(=O)N[C@@H](CC(C)C)C(=O)N[C@@H](CCCCN)C(=O)N[C@@H](CCC(N)=O)C(=O)N[C@@H](C)C(=O)N[C@@H](CCCNC(=N)N)C(=O)N[C@@H](CCC(N)=O)C(=O)N[C@@H](CCCCN)C(=O)NC(C)(C)C(=O)N[C@@H](CCC(N)=O)C(=O)N[C@@H](CCCNC(=N)N)C(=O)N[C@@H](C)C(=O)N[C@@H](CCC(N)=O)C(=O)N[C@@H](C)C(=O)N[C@@H](CCC(=O)O)C(=O)N[C@@H](CCCCN)C(=O)N[C@@H](CC(N)=O)C(=O)N[C@@H](CCCCN)C(=O)N[C@@H](CCCNC(=N)N)C(=O)N[C@H](C(=O)N[C@@H](CC(C)C)C(=O)N[C@@H](CCC(=O)O)C(=O)N[C@@H](CCCNC(=N)N)C(=O)N[C@H](C(N)=O)C(C)C)[C@@H](C)CC)[C@@H](C)CC)[C@@H](C)CC)C(C)C)C(C)C
CRF1/CRF2 ratio (of EC50) [3]: > 500
CRF1 EC50 (cAMP, HTRF) [3]: > 100 nM

B3: peptide of SEQ ID NO: 221 (peptide)
peptide: IVLSLD[dV]PTKLK([γGlu-C16 diacid])QKLLKQERQRKEREQAEKNARILARV-NH2
modifications: N-terminus assumed
SMILES: CC[C@H](C)[C@H](N)C(=O)N[C@H](C(=O)N[C@@H](CC(C)C)C(=O)N[C@@H](CO)C(=O)N[C@@H](CC(C)C)C(=O)N[C@@H](CC(=O)O)C(=O)N[C@@H](C(=O)N1CCC[C@H]1C(=O)N[C@H](C(=O)N[C@@H](CCCCN)C(=O)N[C@@H](CC(C)C)C(=O)N[C@@H](CCCCNC(=O)CC[C@H](NC(=O)CCCCCCCCCCCCCCC(=O)O)C(=O)O)C(=O)N[C@@H](CCC(N)=O)C(=O)N[C@@H](CCCCN)C(=O)N[C@@H](CC(C)C)C(=O)N[C@@H](CC(C)C)C(=O)N[C@@H](CCCCN)C(=O)N[C@@H](CCC(N)=O)C(=O)N[C@@H](CCC(=O)O)C(=O)N[C@@H](CCCNC(=N)N)C(=O)N[C@@H](CCC(N)=O)C(=O)N[C@@H](CCCNC(=N)N)C(=O)N[C@@H](CCCCN)C(=O)N[C@@H](CCC(=O)O)C(=O)N[C@@H](CCCNC(=N)N)C(=O)N[C@@H](CCC(=O)O)C(=O)N[C@@H](CCC(N)=O)C(=O)N[C@@H](C)C(=O)N[C@@H](CCC(=O)O)C(=O)N[C@@H](CCCCN)C(=O)N[C@@H](CC(N)=O)C(=O)N[C@@H](C)C(=O)N[C@@H](CCCNC(=N)N)C(=O)N[C@H](C(=O)N[C@@H](CC(C)C)C(=O)N[C@@H](C)C(=O)N[C@@H](CCCNC(=N)N)C(=O)N[C@H](C(N)=O)C(C)C)[C@@H](C)CC)[C@@H](C)O)C(C)C)C(C)C
EC50 [nM], 0% HSA (cAMP, HTRF) [1]: 2.71 nM
EC50 [nM] 0% HSA (cAMP, HTRF) [2]: > 100 nM
Emax (%) (100% = Sauvagine at 100 nM) [2]: 3.2%

B4: peptide of SEQ ID NO: 222 (peptide)
peptide: IVLSLD[dV]PTKLK([γGlu-C16 diacid])QKLLKQERQRKEREQAEKNVRILERV-NH2
modifications: N-terminus assumed
SMILES: CC[C@H](C)[C@H](N)C(=O)N[C@H](C(=O)N[C@@H](CC(C)C)C(=O)N[C@@H](CO)C(=O)N[C@@H](CC(C)C)C(=O)N[C@@H](CC(=O)O)C(=O)N[C@@H](C(=O)N1CCC[C@H]1C(=O)N[C@H](C(=O)N[C@@H](CCCCN)C(=O)N[C@@H](CC(C)C)C(=O)N[C@@H](CCCCNC(=O)CC[C@H](NC(=O)CCCCCCCCCCCCCCC(=O)O)C(=O)O)C(=O)N[C@@H](CCC(N)=O)C(=O)N[C@@H](CCCCN)C(=O)N[C@@H](CC(C)C)C(=O)N[C@@H](CC(C)C)C(=O)N[C@@H](CCCCN)C(=O)N[C@@H](CCC(N)=O)C(=O)N[C@@H](CCC(=O)O)C(=O)N[C@@H](CCCNC(=N)N)C(=O)N[C@@H](CCC(N)=O)C(=O)N[C@@H](CCCNC(=N)N)C(=O)N[C@@H](CCCCN)C(=O)N[C@@H](CCC(=O)O)C(=O)N[C@@H](CCCNC(=N)N)C(=O)N[C@@H](CCC(=O)O)C(=O)N[C@@H](CCC(N)=O)C(=O)N[C@@H](C)C(=O)N[C@@H](CCC(=O)O)C(=O)N[C@@H](CCCCN)C(=O)N[C@@H](CC(N)=O)C(=O)N[C@H](C(=O)N[C@@H](CCCNC(=N)N)C(=O)N[C@H](C(=O)N[C@@H](CC(C)C)C(=O)N[C@@H](CCC(=O)O)C(=O)N[C@@H](CCCNC(=N)N)C(=O)N[C@H](C(N)=O)C(C)C)[C@@H](C)CC)C(C)C)[C@@H](C)O)C(C)C)C(C)C
EC50 [nM], 0% HSA (cAMP, HTRF) [1]: 7.38 nM
EC50 [nM] 0% HSA (cAMP, HTRF) [2]: > 100 nM
Emax (%) (100% = Sauvagine at 100 nM) [2]: 6.2%

B5: peptide of SEQ ID NO: 202 (peptide)
peptide: IVLSLD[dV]PIGLK([AEEA-AEEA-γGlu-C16 diacid])QILLKQERQKK[Aib]REQAETNKQILAQV-NH2
modifications: N-terminus assumed
SMILES: CC[C@H](C)[C@H](N)C(=O)N[C@H](C(=O)N[C@@H](CC(C)C)C(=O)N[C@@H](CO)C(=O)N[C@@H](CC(C)C)C(=O)N[C@@H](CC(=O)O)C(=O)N[C@@H](C(=O)N1CCC[C@H]1C(=O)N[C@H](C(=O)NCC(=O)N[C@@H](CC(C)C)C(=O)N[C@@H](CCCCNC(=O)COCCOCCNC(=O)COCCOCCNC(=O)CC[C@H](NC(=O)CCCCCCCCCCCCCCC(=O)O)C(=O)O)C(=O)N[C@@H](CCC(N)=O)C(=O)N[C@H](C(=O)N[C@@H](CC(C)C)C(=O)N[C@@H](CC(C)C)C(=O)N[C@@H](CCCCN)C(=O)N[C@@H](CCC(N)=O)C(=O)N[C@@H](CCC(=O)O)C(=O)N[C@@H](CCCNC(=N)N)C(=O)N[C@@H](CCC(N)=O)C(=O)N[C@@H](CCCCN)C(=O)N[C@@H](CCCCN)C(=O)NC(C)(C)C(=O)N[C@@H](CCCNC(=N)N)C(=O)N[C@@H](CCC(=O)O)C(=O)N[C@@H](CCC(N)=O)C(=O)N[C@@H](C)C(=O)N[C@@H](CCC(=O)O)C(=O)N[C@H](C(=O)N[C@@H](CC(N)=O)C(=O)N[C@@H](CCCCN)C(=O)N[C@@H](CCC(N)=O)C(=O)N[C@H](C(=O)N[C@@H](CC(C)C)C(=O)N[C@@H](C)C(=O)N[C@@H](CCC(N)=O)C(=O)N[C@H](C(N)=O)C(C)C)[C@@H](C)CC)[C@@H](C)O)[C@@H](C)CC)[C@@H](C)CC)C(C)C)C(C)C
EC50 [nM], 0% HSA (cAMP, HTRF) [1]: 0.87 nM
EC50 [nM] 0% HSA (cAMP, HTRF) [2]: > 100 nM
Emax (%) (100% = Sauvagine at 100 nM) [2]: 5.4%
